Assay results: PMC10400579, “FDW028, a novel FUT8 inhibitor, impels lysosomal proteolysis of B7-H3 via chaperone-mediated autophagy pathway and exhibits potent efficacy against metastatic colorectal cancer” (Cell Death & Disease, 2023)

What was measured:
[1] = immunoblot of B7-H3, SW480 and HCT-8; conditions: glycan changed form; control: control siRNA / untreated cells
[2] = immunofluorescence colocalization, Pearson's R; conditions: glycan changed form; control: control siRNA / untreated cells
[3] = CHX chase, B7-H3 remaining by immunoblot; conditions: glycan changed form; control: control siRNA
[4] = cell surface biotinylation, membrane-fraction immunoblot; conditions: glycan changed form; control: control siRNA

Protein | expression_or_secretion [1] | localisation_or_trafficking [2] | degradation_or_half_life [3] | expression_or_secretion [4]
B7-H3 (CD276): FDW028 (FUT8 inhibitor) (protein) parent chain: MLRRRGSPGMGVHVGAALGALWFCLTGALEVQVPEDPVVALVGTDATLCCSFSPEPGFSLAQLNLIWQLTDTKQLVHSFAEGQDQGSAYANRTALFPDLLAQGNASLRLQRVRVADEGSFTCFVSIRDFGSAAVSLQVAAPYSKPSMTLEPNKDLRPGDTVTITCSSYQGYPEAEVFWQDGQGVPLTGNVTTSQMANEQGLFDVHSILRVVLGANGTYSCLVRNPVLQQDAHSSVTITPQRSPTGAVEVQVPEDPVVALVGTDATLRCSFSPEPGFSLAQLNLIWQLTDTKQLVHSFTEGRDQGSAYANRTALFPDLLAQGNASLRLQRVRVADEGSFTCFVSIRDFGSAAVSLQVAAPYSKPSMTLEPNKDLRPGDTVTITCSSYRGYPEAEVFWQDGQGVPLTGNVTTSQMANEQGLFDVHSVLRVVLGANGTYSCLVRNPVLQQDAHGSVTITGQPMTFPPEALWVTVGLSVCLIALLVALAFVCWRKIKQSCEEENAGAEDQDGEGEGSKTALQPLKHSDSKEDDGQEIA | decreases | increases | – | –
B7-H3 (CD276): FUT8 siRNA (protein) parent chain: MLRRRGSPGMGVHVGAALGALWFCLTGALEVQVPEDPVVALVGTDATLCCSFSPEPGFSLAQLNLIWQLTDTKQLVHSFAEGQDQGSAYANRTALFPDLLAQGNASLRLQRVRVADEGSFTCFVSIRDFGSAAVSLQVAAPYSKPSMTLEPNKDLRPGDTVTITCSSYQGYPEAEVFWQDGQGVPLTGNVTTSQMANEQGLFDVHSILRVVLGANGTYSCLVRNPVLQQDAHSSVTITPQRSPTGAVEVQVPEDPVVALVGTDATLRCSFSPEPGFSLAQLNLIWQLTDTKQLVHSFTEGRDQGSAYANRTALFPDLLAQGNASLRLQRVRVADEGSFTCFVSIRDFGSAAVSLQVAAPYSKPSMTLEPNKDLRPGDTVTITCSSYRGYPEAEVFWQDGQGVPLTGNVTTSQMANEQGLFDVHSVLRVVLGANGTYSCLVRNPVLQQDAHGSVTITGQPMTFPPEALWVTVGLSVCLIALLVALAFVCWRKIKQSCEEENAGAEDQDGEGEGSKTALQPLKHSDSKEDDGQEIA | decreases | increases | decreases | decreases
